Reference: patent publication US20070009989A1, “Synthetic heparanase molecules and uses thereof” (priority 2003, published 2007)

Experiments:
[1] = Heparanase enzymatic activity of constructs transiently expressed in COS-7 cells (radiometric or fluorimetric assay); format: biochemical; conditions: for stability of the construct (conclusion from expression level): expression barely detectable by Western blot; for enzymatic activity: extracted by heparin affinity chromatography
Procedure: Cells were grown in Dulbecco's MEM (Gibco BRL, Gaithersburg, Md.). All constructs were cloned into the eukaryotic expression plasmid pcDNA3 (Invitrogen). A vector encoding the reporter gene β-lactamase (BLA) was co-transfected in order to check transfection efficiency of each construct. […] Transient transfection of COS7 cells was obtained using the fuGENE 6 Transfection Reagent (Roche, Basel, Switzerland) according to manufacturer's instructions. 24 hours after transfection, efficiency was assessed by fluorimetric detection of BLA-positive cells. 96 hours after transfection, cells were harvested and resuspended in lysis buffer (50 mM Tris-HCl pH 7.5, 150 mM NaCl, 0.5% Triton) containing Complete protease inhibitor cocktail (Roche). The lysis was carried out on ice for 30 minutes. After centrifugation at 14000 rpm for 30 minutes, the heparanase containing supernatants were recovered and partially purified as outlined below.
Heparanase constructs were expressed in COS-7 cells, which are devoid of endogenous heparanse activity, by transient transfection. Heparanase was extracted from cell lysates by heparin affinity chromatography and quantified on Western blots. In parallel, heparanase enzymatic activity was determined with either the radiometric or fluorimetric assay (FIG. 5). From Western blot analysis, we concluded that wt heparanase as well as the single chain constructs GS3 and hyaluro are efficiently expressed and processed, whereas constructs 106 and GS4 are expressed but not processed. Expression levels of constructs 109 and GS6 were extremely low and barely detectable by Western blot analysis. […] Since GS3 and hyaluro are active but are processed despite the changes that were introduced in the cleavage sites we can not draw any conclusion with respect to the intrinsic activity of the precursors. We therefore proceeded with the expression in cells that are devoid of the enzyme(s) responsible for heparanase processing.
(§1) Cell lysates from COS7 or Sf9 insect cells were passed through 500 μl Heparin Sepharose CL-6B (Amersham, Piscataway, N.J.) by gravity. The column was washed with 2 ml of lysis buffer, then with 2 ml of 50 mM Tris-HCl pH 7.5, 500 mM NaCl, and heparanase was eluted with 2 ml of 50 mM Tris-HCl pH 7.5, 1 M NaCl and concentrated about 5 fold with a Biomax-30K centrifugal concentrator (Millipore, Bedford, Mass.). 10% glycerol was added and the protein was stored in aliquots at −80° C. Protein concentration was determined using the BIO-RAD Protein Assay.
(§2) This assay is based on the degradation of FITC-HS monitored by HPLC size exclusion chromatography. 8 μl of purified heparanase was incubated with 5 μL of FITC-HS in a 50 μl of 50 mM MES pH 6, 10% glycerol (heparanase activity buffer, HAB). The reaction mixture was incubated at room temperature for a defined period and the reaction was stopped by the addition of 50 μg of heparin. The mixture was then filtered using Ultrafree-MC centrifugal filter Devices (Millipore). 20 μl were injected on a Superdex 75™ (Pharmacia Biotech) column equilibrated in buffer 50 mM Hepes pH 7.5 150 mM Na2SO4 and connected to a Merck-Hitachi HPLC system. Fluorescent heparan sulfate degradation products were detected by an L-7485 fluorescence detector. Heparanase activity was assessed by monitoring the increase in lower molecular weight heparan sulfate species compared with the intact FITC-HS and quantified by peak area integration.
This assay is based on the degradation of tritiated heparan sulfate immobilized on microplate. Each well of the Reacti-Bind Streptavidin High Binding Capacity Coated Plates was pre-treated according to manufacturer's instructions. Initially, different amounts of each fraction of tritiated, biotinylated heparan sulfate obtained after PD-10 desalting column were added to each well (in duplicate) in PBS to a final volume of 100 μl. […]

[2] = Heparanase enzymatic activity of constructs expressed in Sf9 insect cells (fluorimetric assay); format: biochemical; conditions: for pH and ionic strength dependence of the enzymatic activity: compared with wild type enzyme from COS-7 cells or HCT-116 cells; for enzymatic activity of the unprocessed purified protein: expressed in Sf9 cells, compared with correctly processed wild type enzyme from COS-7 cells
Procedure: Recombinant baculoviruses containing the heparanase constructs were generated using the Bac to Bac expression system (Invitrogen). Recombinant baculoviruses were used to infect Sf9 insect cells (50×10^6 cells per T-175 flask) grown in Grace's insect medium with 10% FBS. Cells were collected 48 h after infection, and centrifuged at 500 g for 5 minutes. Cell lysates were prepared as above, except the lysis buffer contained 500 mM NaCl instead of the 150 mM used for COS7, which improved protein quantity in the soluble fraction.
The proteins were expressed in Sf9 cells and purified by heparin affinity chromatography.
as §1, §2

Molecule	stability of the construct (conclusion from expression level) [1]	enzymatic activity [1]	pH and ionic strength dependence of the enzymatic activity [2]	enzymatic activity of the unprocessed purified protein [2]
109: single chain heparanase linking the 8 and 50 kDa subunits directly, protein SEQ ID NO:20 (protein, hep 109) MLLRSKPALPPPLMLLLLGPLGPLSPGALPRPAQAQDVVDLDFFTQEPLHLVSPSFLSVTIDANLATDPRFLILLGSPKLRTLARGLSPAYLRFGGTKTDFLIFDPKKEKKFKNSTYSRSSVDVLYTFANCSGLDLIFGLNALLRTADLQWNSSNAQLLLDYCSSKGYNISWELGNEPNSFLKKADIFINGSQLGEDFIQLHKLLRKSTFKNAKLYGPDVGQPRRKTAKMLKSFLKAGGEVIDSVTWHHYYLNGRTATREDFLNPDVLDIFISSVQKVFQVVESTRPGKKVWLGETSSAYGGGAPLLSDTFAAGFMWLDKLGLSARMGIEVVMRQVFFGAGNYHLVDENFDPLPDYWLSLLFKKLVGTKVLMASVQGSKRRKLRVYLHCTNTDNPRYKEGDLTLYAINLHNVTKYLRLPYPFSNKQVDKYLLRPLGPHGLLSKSVQLNGLTLKMVDDQTLPPLMEKPLRPGSSLGLPAFSYSFFVIRNAKVAACI	probably unstable	–	–	–
hyaluro: single chain heparanase with grafted loop region from hyaluronidase, protein SEQ ID NO:27 (protein, hep Hya1) MLLRSKPALPPPLMLLLLGPLGPLSPGALPRPAQAQDVVDLDFFTQEPLHLVSPSFLSVTIDANLATDPRFLILLGSPKLRTLARGLSPAYLRFGGTKTDFLIFDPKKESTFEERSYWAFKDKTPEWPYQEQLLLREHYQKKFKNSTYSRSSVDVLYTFANCSGLDLIFGLNALLRTADLQWNSSNAQLLLDYCSSKGYNISWELGNEPNSFLKKADIFINGSQLGEDFIQLHKLLRKSTFKNAKLYGPDVGQPRRKTAKMLKSFLKAGGEVIDSVTWHHYYLNGRTATREDFLNPDVLDIFISSVQKVFQVVESTRPGKKVWLGETSSAYGGGAPLLSDTFAAGFMWLDKLGLSARMGIEVVMRQVFFGAGNYHLVDENFDPLPDYWLSLLFKKLVGTKVLMASVQGSKRRKLRVYLHCTNTDNPRYKEGDLTLYAINLHNVTKYLRLPYPFSNKQVDKYLLRPLGPHGLLSKSVQLNGLTLKMVDDQTLPPLMEKPLRPGSSLGLPAFSYSFFVIRNAKVAACI	–	showed enzymatic activity	undistinguishable from the wild type recombinant enzyme	highly active
106: single chain heparanase linking the 8 and 50 kDa subunits directly, protein SEQ ID NO:17 (protein, hep 106) MLLRSKPALPPPLMLLLLGPLGPLSPGALPRPAQAQDVVDLDFFTQEPLHLVSPSFLSVTIDANLATDPRFLILLGSPKLRTLARGLSPAYLRFGGTKTDFLIFDPKKFKNSTYSRSSVDVLYTFANCSGLDLIFGLNALLRTADLQWNSSNAQLLLDYCSSKGYNISWELGNEPNSFLKKADIFINGSQLGEDFIQLHKLLRKSTFKNAKLYGPDVGQPRRKTAKMLKSFLKAGGEVIDSVTWHHYYLNGRTATREDFLNPDVLDIFISSVQKVFQVVESTRPGKKVWLGETSSAYGGGAPLLSDTFAAGFMWLDKLGLSARMGIEVVMRQVFFGAGNYHLVDENFDPLPDYWLSLLFKKLVGTKVLMASVQGSKRRKLRVYLHCTNTDNPRYKEGDLTLYAINLHNVTKYLRLPYPFSNKQVDKYLLRPLGPHGLLSKSVQLNGLTLKMVDDQTLPPLMEKPLRPGSSLGLPAFSYSFFVIRNAKVAACI	–	inactive	–	–
GS6: single chain heparanase, subunits linked via (GS)6 spacer, protein SEQ ID NO:26 (protein, hep GS-A6) MLLRSKPALPPPLMLLLLGPLGPLSPGALPRPAQAQDVVDLDFFTQEPLHLVSPSFLSVTIDANLATDPRFLILLGSPKLRTLARGLSPAYLRFGGTKTDFLIFDPKKEGSGSGSGSGSGSKKFKNSTYSRSSVDVLYTFANCSGLDLIFGLNALLRTADLQWNSSNAQLLLDYCSSKGYNISWELGNEPNSFLKKADIFINGSQLGEDFIQLHKLLRKSTFKNAKLYGPDVGQPRRKTAKMLKSFLKAGGEVIDSVTWHHYYLNGRTATREDFLNPDVLDIFISSVQKVFQVVESTRPGKKVWLGETSSAYGGGAPLLSDTFAAGFMWLDKLGLSARMGIEVVMRQVFFGAGNYHLVDENFDPLPDYWLSLLFKKLVGTKVLMASVQGSKRRKLRVYLHCTNTDNPRYKEGDLTLYAINLHNVTKYLRLPYPFSNKQVDKYLLRPLGPHGLLSKSVQLNGLTLKMVDDQTLPPLMEKPLRPGSSLGLPAFSYSFFVIRNAKVAACI	probably unstable	–	–	–
GS3: single chain heparanase, subunits linked via (GS)3 glycine-serine spacer, protein SEQ ID NO:21 (protein, hep GS3) MLLRSKPALPPPLMLLLLGPLGPLSPGALPRPAQAQDVVDLDFFTQEPLHLVSPSFLSVTIDANLATDPRFLILLGSPKLRTLARGLSPAYLRFGGTKTDFLIFDPKKEGSGSGSKKFKNSTYSRSSVDVLYTFANCSGLDLIFGLNALLRTADLQWNSSNAQLLLDYCSSKGYNISWELGNEPNSFLKKADIFINGSQLGEDFIQLHKLLRKSTFKNAKLYGPDVGQPRRKTAKMLKSFLKAGGEVIDSVTWHHYYLNGRTATREDFLNPDVLDIFISSVQKVFQVVESTRPGKKVWLGETSSAYGGGAPLLSDTFAAGFMWLDKLGLSARMGIEVVMRQVFFGAGNYHLVDENFDPLPDYWLSLLFKKLVGTKVLMASVQGSKRRKLRVYLHCTNTDNPRYKEGDLTLYAINLHNVTKYLRLPYPFSNKQVDKYLLRPLGPHGLLSKSVQLNGLTLKMVDDQTLPPLMEKPLRPGSSLGLPAFSYSFFVIRNAKVAACI	–	showed enzymatic activity	undistinguishable from the wild type recombinant enzyme	highly active
GS4: single chain heparanase, W118-(GS)4-E143 spacer, protein SEQ ID NO:25 (protein, hep GS-A4) MLLRSKPALPPPLMLLLLGPLGPLSPGALPRPAQAQDVVDLDFFTQEPLHLVSPSFLSVTIDANLATDPRFLILLGSPKLRTLARGLSPAYLRFGGTKTDFLIFDPKKESTFEERSYWGSGAGSGAEWPYQEQLLLREHYQKKFKNSTYSRSSVDVLYTFANCSGLDLIFGLNALLRTADLQWNSSNAQLLLDYCSSKGYNISWELGNEPNSFLKKADIFINGSQLGEDFIQLHKLLRKSTFKNAKLYGPDVGQPRRKTAKMLKSFLKAGGEVIDSVTWHHYYLNGRTATREDFLNPDVLDIFISSVQKVFQVVESTRPGKKVWLGETSSAYGGGAPLLSDTFAAGFMWLDKLGLSARMGIEVVMRQVFFGAGNYHLVDENFDPLPDYWLSLLFKKLVGTKVLMASVQGSKRRKLRVYLHCTNTDNPRYKEGDLTLYAINLHNVTKYLRLPYPFSNKQVDKYLLRPLGPHGLLSKSVQLNGLTLKMVDDQTLPPLMEKPLRPGSSLGLPAFSYSFFVIRNAKVAACI	–	inactive	–	–
